Test results published in article PMC3948368.

Biological target: EGFRvIII (on U87-EGFRvIII cells) del30-297 (UniProt P00533)
Test: cell ELISA
Settings: apparent Kd, fixed U87-EGFRvIII cells, 3% BSA in PBST block (PBS, 0.01% Tween 20, pH 7.4), 37 C 40 min, SELEX binding buffer: PBS, 5 mM MgCl2, glucose, yeast tRNA, salmon …

Sequence | Kd
ATCCAGAGTGACGCAGCATGAATCTTTTCTTTTGGTTTTGATATTTATAGTTGGTGAATGGACACGGTGGCTTAGT [U8] | 4.35 nM
ATCCAGAGTGACGCAGCATTTTGACGCTTTATCCTTTTCTTATGGCGGGATAGTTTCGTGGACACGGTGGCTTAGT [U2] | 3.37 nM
